Laboratory results published in patent publication US20030152568A1.

Target: FGF receptor-3c on human osteosarcoma cell line (ATCC, CRL 1543) (human) (UniProt P22607)
Experiment: cell-based or functional assay

FGF-18-saporin conjugate, sequence (O76093 28-207): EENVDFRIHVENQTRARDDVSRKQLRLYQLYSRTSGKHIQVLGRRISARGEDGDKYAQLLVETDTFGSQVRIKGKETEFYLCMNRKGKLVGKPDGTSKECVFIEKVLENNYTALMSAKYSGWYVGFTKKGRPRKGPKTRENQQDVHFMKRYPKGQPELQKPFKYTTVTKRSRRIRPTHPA
UniProt P22607, sequence (P22607 23-806): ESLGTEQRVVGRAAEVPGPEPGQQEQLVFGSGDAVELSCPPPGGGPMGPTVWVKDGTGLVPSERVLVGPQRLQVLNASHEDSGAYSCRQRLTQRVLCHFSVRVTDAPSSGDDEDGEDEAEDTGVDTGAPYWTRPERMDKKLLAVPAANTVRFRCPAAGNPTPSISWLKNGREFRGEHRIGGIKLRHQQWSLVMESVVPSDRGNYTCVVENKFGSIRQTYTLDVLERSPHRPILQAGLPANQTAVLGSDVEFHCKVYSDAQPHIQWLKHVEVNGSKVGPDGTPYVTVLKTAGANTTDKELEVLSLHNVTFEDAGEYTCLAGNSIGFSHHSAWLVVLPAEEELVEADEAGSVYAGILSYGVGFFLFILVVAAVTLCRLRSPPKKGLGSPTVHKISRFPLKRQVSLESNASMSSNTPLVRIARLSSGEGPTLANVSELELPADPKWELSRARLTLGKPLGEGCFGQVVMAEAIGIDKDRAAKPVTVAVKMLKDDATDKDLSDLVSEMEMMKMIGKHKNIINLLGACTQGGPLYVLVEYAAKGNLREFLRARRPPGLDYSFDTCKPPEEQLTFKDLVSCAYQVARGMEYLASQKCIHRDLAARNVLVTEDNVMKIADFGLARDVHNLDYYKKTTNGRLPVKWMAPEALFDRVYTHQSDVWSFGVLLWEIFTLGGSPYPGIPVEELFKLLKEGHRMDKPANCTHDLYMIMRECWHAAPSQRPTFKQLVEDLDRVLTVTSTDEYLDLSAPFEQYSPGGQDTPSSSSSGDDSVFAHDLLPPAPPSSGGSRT

FGF-18-saporin conjugate
LD50 (sensitivity of cell lines to the FGF-18-saporin conjugate): < 1 nM
